Laboratory results taken from patent US20230110188A1 (ARGENX IIP, published 2023).

T1: hMuSK delta 1-2-3 (Fz) (human, UniProt O15146)
T1 construct: truncated extracellular domain, captured by anti-FLAG
T1 sequence (truncated extracellular domain, looked up): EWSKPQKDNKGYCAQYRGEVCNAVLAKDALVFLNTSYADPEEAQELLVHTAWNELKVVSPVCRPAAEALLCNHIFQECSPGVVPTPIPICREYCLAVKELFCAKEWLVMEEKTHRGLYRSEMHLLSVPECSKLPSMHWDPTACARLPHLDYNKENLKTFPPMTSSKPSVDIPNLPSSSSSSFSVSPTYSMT

T2: Mouse MuSK as it stands on mouse muscle (neuromuscular junctions, C2C12 myotubes) (mouse, UniProt Q61006 22-868)
T2 sequence (looked up): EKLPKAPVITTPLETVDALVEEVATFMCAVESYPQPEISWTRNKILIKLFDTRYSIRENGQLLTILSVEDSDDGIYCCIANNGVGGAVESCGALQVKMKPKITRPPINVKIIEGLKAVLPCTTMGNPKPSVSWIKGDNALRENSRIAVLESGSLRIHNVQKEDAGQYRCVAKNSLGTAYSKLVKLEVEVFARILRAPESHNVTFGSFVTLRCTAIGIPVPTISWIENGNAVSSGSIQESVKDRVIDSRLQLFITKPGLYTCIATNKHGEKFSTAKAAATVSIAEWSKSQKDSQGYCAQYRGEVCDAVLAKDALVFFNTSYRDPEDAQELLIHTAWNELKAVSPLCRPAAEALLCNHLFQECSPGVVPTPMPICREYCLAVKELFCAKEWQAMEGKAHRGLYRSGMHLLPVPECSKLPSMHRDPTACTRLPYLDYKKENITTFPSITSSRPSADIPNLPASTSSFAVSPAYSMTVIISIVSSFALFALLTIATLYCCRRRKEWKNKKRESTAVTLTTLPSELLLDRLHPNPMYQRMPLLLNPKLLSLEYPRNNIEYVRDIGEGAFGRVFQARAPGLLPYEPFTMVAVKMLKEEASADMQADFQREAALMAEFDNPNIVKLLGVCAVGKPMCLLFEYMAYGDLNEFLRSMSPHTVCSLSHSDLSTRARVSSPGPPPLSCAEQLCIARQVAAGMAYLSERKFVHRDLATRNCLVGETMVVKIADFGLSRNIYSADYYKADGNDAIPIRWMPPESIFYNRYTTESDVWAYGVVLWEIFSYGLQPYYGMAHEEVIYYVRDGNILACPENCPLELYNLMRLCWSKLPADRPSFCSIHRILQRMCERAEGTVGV

T3: human monomeric MuSK FLAG streptavidin (in house produced, batch 27-6-2019) (human, UniProt O15146 24-495)
T3 construct: also called full length MuSK; not shown: FLAG and streptavidin tags
T3 sequence: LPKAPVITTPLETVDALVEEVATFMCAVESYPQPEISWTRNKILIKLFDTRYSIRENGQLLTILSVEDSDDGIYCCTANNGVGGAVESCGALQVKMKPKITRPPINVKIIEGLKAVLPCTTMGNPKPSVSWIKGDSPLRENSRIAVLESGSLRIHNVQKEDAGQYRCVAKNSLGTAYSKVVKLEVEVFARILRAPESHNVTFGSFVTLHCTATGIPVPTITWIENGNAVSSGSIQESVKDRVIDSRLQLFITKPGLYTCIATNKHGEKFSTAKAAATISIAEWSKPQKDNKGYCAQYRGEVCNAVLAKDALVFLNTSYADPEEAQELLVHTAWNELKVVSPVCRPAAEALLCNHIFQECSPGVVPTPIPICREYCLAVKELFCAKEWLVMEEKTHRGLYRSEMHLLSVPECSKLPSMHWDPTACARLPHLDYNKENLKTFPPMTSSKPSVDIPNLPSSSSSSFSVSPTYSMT


How the values were obtained:
hMuSK delta 1-2-3 (Fz) = target: T1, hMuSK delta 1-2-3 (Fz); assay: ELISA, hMuSK delta 1-2-3 (Fz) captured on anti-FLAG coat, antibody titrated, anti-human Fc HRP detection, OD450
Description: For binding to MuSK domains—An ELISA plate was coated with 0.5 μg/ml of anti-FLAG (M2 clone, Sigma Cat. F3165) and incubated overnight at 4° C. Next, the plate was washed with PBS and blocked with 1×PBS 1% casein for two hours at RT. After washing the plate, human monomeric MuSK FLAG streptavidin (batch 27-6-2019) and truncated MuSK variants (batch 3-9-2019) at 1 μg/ml in PBS where incubated for one hour at RT. After washing the plate, antibodies were diluted in blocking buffer and added to the plate. After a one hour incubation at RT, the plate was washed. Next, detecting antibody was added and incubated for one hour at RT (anti-human Fc HRP (1/5000) (clone 5A9, cat. No. Ab7499, ABCAM)) in blocking buffer. Lastly, the plate was washed with PBS and TMB was added and the reaction was stopped with 0.5 M H2SO4. OD 450 nm was determined by the Tecan Sunrise ELISA plate reader.
For the MuSK domain binding ELISA, binding of anti-MuSK antibodies to FLAG captured human monomeric MuSK and truncated variants was tested (FIG. 6). 3D9b, 3F6c, 3D10a, 4D3 and 3B5 bound only to full length MuSK, no binding was observed against the truncated MuSK variants. Therefore, we conclude that our antibodies bind to the Ig1 domain.

[1] = target: T2, Mouse MuSK as it stands on mouse muscle …; assay: cell-based or functional assay
[2] = target: T2, Mouse MuSK as it stands on mouse muscle …; assay: cell-based or functional assay; remark: listed apart in the source
[3] = target: T3, human monomeric MuSK FLAG streptavidin …; assay: epitope binning ELISA (coated anti-MuSK Fab, MuSK, IgG, anti-Fc HRP); competitor: 3D10a
Description: For epitope binning—An ELISA plate was coated at 1 μg/ml of the anti-MuSK Fabs and incubated overnight at 4° C. Next, the plate was wash with PBS followed by blocking with 1% casein in PBS for one hour. After washing the plate, 1 μg/ml of human monomeric MuSK (in house produced, batch 27-6-2019) was incubated for one hour at RT. The plate was washed and anti-MuSK antibodies at 0.3-10 μg/ml were added to the plate and incubated for one hour at RT. After washing the plate, detection antibody (goat anti-human Fc HRP (Jackson Immunoresearch cat. 109-035-098)) was added at 5000 fold dilution in PBS 0.1% casein. The plate was incubated for one hour at RT and washed with PBS-T. TMB was added and the reaction was stopped by adding H2504. […]
For the epitope binning ELISA, a plate was coated with anti-MuSK Fab and human monomeric MuSK was added after blocking the plate. Next the different antibodies were added and allowed to bind.

Row | Binder | AChR clusters larger or equal to 15 µm (large clusters) compared to agrin; antibody 0.11 µg/ml [1] | AChR clusters larger or equal to 15 µm (large clusters) compared to agrin; antibody 1.1 µg/ml [1] | AChR clusters larger or equal to 15 µm (large clusters) compared to agrin; antibody 11 µg/ml [1] | AChR clusters larger or equal to 15 µm (large clusters) compared to agrin; antibody 110 µg/ml [1] | AChR clusters larger or equal to 15 µm (large clusters) compared to agrin; Exp 1, batch Argenx [2] | AChR clusters larger or equal to 15 µm (large clusters) compared to agrin; Exp 2, batch Argenx [2] | AChR clusters larger or equal to 15 µm (large clusters) compared to agrin; Exp 3, batch UPX [2] | OD 450 nm [3] [OD] | binding result (hMuSK delta 1-2-3 (Fz))
1 | 3D10a (antibody, human IgG1, kappa, L234A L235A, V domains shown) VH: EVQLVESGGGLVKPGGSLRLSCAASGFTFSASTMAWVRQAPGKGLEWVSSVSGDSHHIYYADSLKGRFTISRDNAKNSLYLQMNSLRAEDTAVYYCARERLLRLGVGFDSWGQGTLVTVSS VL: DIQMTQSPSSLSASVGDRVTITCRASQRISGFVNWYQQKPGKAPKLLIYAASTLQSGVPSRFSGSGSGTDFTLTISSLQPEDFATYYCQQSYSPLYTFGQGTKLEIKR | 62 % of agrin | 64 % of agrin | 61 % of agrin | 58 % of agrin | 52 % of agrin | 73 % of agrin | 61 % of agrin | 0.049 | no binding (tested: log(conc) 4.2 (about 16000 ng/ml))
2 | 3D9b (antibody, human IgG1, kappa, L234A L235A, V domains shown) VH: EVQLVESGGGLVKPGGSLRLSCAASGFTFSTYTMHWVRQAPGKGLEWVSSISSRSAYKYYADSVKGRFTISRDNAKNSLYLQMNSLRAEDTAVYYCARDFFQLGPPRFDSWGQGTLVTVSS VL: DIQMTQSPSSLSASVGDRVTITCRASQRISSFLNWYQQKPGKAPKLLIYGASNLQSGVPSRFSGSGSGTDFTLTISSLQPEDFATYYCQQSYSPSYTFGQGTKLEIKR | 49 % of agrin | 84 % of agrin | 79 % of agrin | 66 % of agrin | 80 % of agrin | 74 % of agrin | 70 % of agrin | 0.06 | no binding (tested: log(conc) 4.2 (about 16000 ng/ml))

Now from value to binder, other results behind:

Row | AChR clusters larger or equal to 15 µm (large clusters) compared to agrin; antibody 0.11 µg/ml [1] | AChR clusters larger or equal to 15 µm (large clusters) compared to agrin; antibody 1.1 µg/ml [1] | AChR clusters larger or equal to 15 µm (large clusters) compared to agrin; antibody 11 µg/ml [1] | AChR clusters larger or equal to 15 µm (large clusters) compared to agrin; antibody 110 µg/ml [1] | AChR clusters larger or equal to 15 µm (large clusters) compared to agrin; Exp 1, batch Argenx [2] | AChR clusters larger or equal to 15 µm (large clusters) compared to agrin; Exp 2, batch Argenx [2] | AChR clusters larger or equal to 15 µm (large clusters) compared to agrin; Exp 3, batch UPX [2] | OD 450 nm [3] [OD] | Binder | binding result (hMuSK delta 1-2-3 (Fz))
3 | 44 % of agrin | 58 % of agrin | 61 % of agrin | 58 % of agrin | 84 % of agrin | 58 % of agrin | 59 % of agrin | 0.008 | 4D3 (antibody, human IgG1, kappa, L234A L235A, V domains shown) VH: EVQLVESGGGLVKPGGSLRLSCAASGFTFSSYTMTWVRQAPGKGLEWVSSISSGGHYIYYTDSLKGRFTISRDNAKNSLYLQMNSLRAEDTAVYYCARERLLRLGVGFDFWGQGTLVTVSS VL: DIQMTQSPSSLSASVGDRVTITCRASQSISGYLNWYQQKPGKAPKLLIYAASTLQSGVPSRFSGSGSGTDFTLTISSLQPEDFATYYCQQSYSALYTFGQGTKLEIKR | no binding (tested: log(conc) 4.2 (about 16000 ng/ml))
4 | 60 % of agrin | 46 % of agrin | 51 % of agrin | 50 % of agrin | 56 % of agrin | 70 % of agrin | 57 % of agrin | 0.057 | 3F6c (antibody, human IgG1, kappa, L234A L235A, V domains shown) VH: EVQLVESGGGLVKPGGSLRLSCAASGFTFSSYTMDWVRQAPGKGLEWVSSIGSNGDYIYYADSVRGRFTISRDNAKNSLYLQMNSLRAEDTAVYYCARGQLAVAGTHFDYWGQGTLVTVSS VL: DIQMTQSPSSLSASVGDRVTITCRASQKVNKYVNWYQQKPGKAPKLLIYAASTLQSGVPSRFSGSGSGTDFTLTISSLQPEDFATYYCQQSYSPLSTFGQGTKLEIKR | no binding (tested: log(conc) 4.2 (about 16000 ng/ml))
